In article PMC10441475, “Structure of METTL3-METTL14 with an m6A nucleotide reveals insights into m6A conversion and sensing”:

Columns and labels:
[1] = target: T1, METTL3 WT;METTL14 WT (Homo sapiens;Homo sapiens, UniProt Q86U44;Q9HCE5 1-580;1-456, |); experiment: SPR; 1:1 model; FP: 10 mM HEPES pH 7.5, 50 mM KCl, 5 nM RNA; SPR: 10 mM HEPES pH 7.5, 150 mM KCl, 0.05% P20, 25 C; 2-Ap: 50 mM Tris pH 8.0, 10 mM MgCl2, 0.5 uM RNA, read at 37; details: protein: recombinant;recombinant, tags: His-tag removed by TEV;, copies: 1;1
[2] = target: METTL3 R471H;METTL14 WT (Homo sapiens;Homo sapiens, UniProt Q86U44;Q9HCE5 1-580;1-456, R471H|); experiment: SPR; two-state model; FP: 10 mM HEPES pH 7.5, 50 mM KCl, 5 nM RNA; SPR: 10 mM HEPES pH 7.5, 150 mM KCl, 0.05% P20, 25 C; 2-Ap: 50 mM Tris pH 8.0, 10 mM MgCl2, 0.5 uM RNA, read at 37; details: protein: recombinant;recombinant, tags: His-tag removed by TEV;, copies: 1;1
[3] = target: METTL3 WT;METTL14 R298P (Homo sapiens;Homo sapiens, UniProt Q86U44;Q9HCE5 1-580;1-456, |R298P); experiment: as above; details: protein: recombinant;recombinant, tags: His-tag removed by TEV;, copies: 1;1
[4] = target: T1, METTL3 WT;METTL14 WT; experiment: fluorescence polarization; range given for A-RNA and m6A-RNA together; m6A-RNA said to bind more tightly; FP: 10 mM HEPES pH 7.5, 50 mM KCl, 5 nM RNA; SPR: 10 mM HEPES pH 7.5, 150 mM KCl, 0.05% P20, 25 C; 2-Ap: 50 mM Tris pH 8.0, 10 mM MgCl2, 0.5 uM RNA, read at 37; details: protein: recombinant;recombinant; tags: His-tag removed by TEV;; copies: 1;1; label: 5' fluorescein; predicted bulged stem-loop
[5] = target: T1, METTL3 WT;METTL14 WT; experiment: fluorescence polarization; range given for A-RNA and m6A-RNA together; FP: 10 mM HEPES pH 7.5, 50 mM KCl, 5 nM RNA; SPR: 10 mM HEPES pH 7.5, 150 mM KCl, 0.05% P20, 25 C; 2-Ap: 50 mM Tris pH 8.0, 10 mM MgCl2, 0.5 uM RNA, read at 37; details: protein: recombinant;recombinant; tags: His-tag removed by TEV;; copies: 1;1; label: 5' fluorescein; predicted bulged stem-loop

Chain of METTL3 R471H;METTL14 WT (Q86U44 whole entry R471H, chain 1 of 2): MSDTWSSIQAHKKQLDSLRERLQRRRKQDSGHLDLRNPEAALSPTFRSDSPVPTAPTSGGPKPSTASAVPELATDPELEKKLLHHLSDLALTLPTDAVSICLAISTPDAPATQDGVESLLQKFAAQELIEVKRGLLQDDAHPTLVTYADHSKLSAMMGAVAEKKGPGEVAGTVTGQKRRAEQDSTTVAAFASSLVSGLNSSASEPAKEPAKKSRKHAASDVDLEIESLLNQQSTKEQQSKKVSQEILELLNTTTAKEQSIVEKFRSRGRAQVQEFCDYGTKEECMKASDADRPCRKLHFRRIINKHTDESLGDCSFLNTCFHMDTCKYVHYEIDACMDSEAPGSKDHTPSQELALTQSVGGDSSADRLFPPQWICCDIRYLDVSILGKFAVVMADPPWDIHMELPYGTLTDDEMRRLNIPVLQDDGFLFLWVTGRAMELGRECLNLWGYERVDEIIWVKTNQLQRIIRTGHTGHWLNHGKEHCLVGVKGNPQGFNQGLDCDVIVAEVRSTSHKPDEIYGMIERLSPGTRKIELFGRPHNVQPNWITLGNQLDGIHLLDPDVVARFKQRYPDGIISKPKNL
Chain of METTL3 R471H;METTL14 WT (Q9HCE5 whole entry, chain 2 of 2): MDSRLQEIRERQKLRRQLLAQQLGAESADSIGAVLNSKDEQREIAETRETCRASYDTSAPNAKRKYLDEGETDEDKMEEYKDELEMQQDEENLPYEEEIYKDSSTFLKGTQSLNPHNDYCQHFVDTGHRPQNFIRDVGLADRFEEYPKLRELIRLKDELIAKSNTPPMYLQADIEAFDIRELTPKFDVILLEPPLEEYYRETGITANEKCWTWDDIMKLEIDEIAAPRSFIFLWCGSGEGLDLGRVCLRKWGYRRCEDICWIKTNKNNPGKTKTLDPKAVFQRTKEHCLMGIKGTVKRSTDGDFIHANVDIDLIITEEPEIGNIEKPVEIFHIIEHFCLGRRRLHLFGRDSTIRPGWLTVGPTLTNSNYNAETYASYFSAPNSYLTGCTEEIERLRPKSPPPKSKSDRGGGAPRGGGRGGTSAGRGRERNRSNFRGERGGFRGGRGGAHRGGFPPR
Chain of METTL3 WT;METTL14 R298P (Q86U44 whole entry, chain 1 of 2): as the sequence (Q86U44 whole entry R471H, chain 1 of 2) above, with H471R counted along it
Chain of METTL3 WT;METTL14 R298P (Q9HCE5 whole entry R298P, chain 2 of 2): as the sequence (Q9HCE5 whole entry, chain 2 of 2) above, with R298P counted along it
T1 sequence (Q86U44 whole entry, chain 1 of 2): as the sequence (Q86U44 whole entry R471H, chain 1 of 2) above, with H471R counted along it
T1 sequence (Q9HCE5 whole entry, chain 2 of 2): as the sequence (Q9HCE5 whole entry, chain 2 of 2) above

Binder	Kd ([1]; linear single strand) [nM]	Kd ([2]; linear single strand) [nM]	Kd ([3]; linear single strand) [nM]	Kd ([1]; bulged stem-loop) [nM]	Kd ([2]; bulged stem-loop) [nM]	Kd ([3]; bulged stem-loop) [nM]	also measured
CUUCGGACUCUGCU (ssRNA) [r6T (biotinyl)]	1360	108	2160				
GCCUAGUAGCAGAGAGGACUGCUCCUUGGU (structured_RNA, m6A at position 18) [Fl-NEAT2*-m6A (m6A-RNA)]							Kd [4]: ~13.4 nM
GCCUAGUAGCAGAGAGGACUGCUCCUUGGU (structured_RNA, m6A at position 18) [rNEAT2-m6A (biotinyl)]				337	62.8	538	
GCCUAGUAGCAGAGAGGACUGCUCCUUGGU (structured_RNA) [rNEAT2 (biotinyl)]				256	58.8	356	
CUUCGGACUCUGCU (ssRNA, m6A at position 7) [r6T-m6A (biotinyl)]	3120	171	22900				
GCCUAGUAGCAGAGAGGACUGCUCCUUGGU (structured_RNA) [Fl-NEAT2* (A-RNA)]							Kd [5]: ~13.4 nM
